Source: publication PMC2699497

B1: unlabeled 10-mer nontarget duplex (NMR) (dsDNA)
DNA 1: CTGGATCCAG
DNA 2: CTGGATCCAG
B2: 5'-FAM 10-mer nontarget duplex (dsDNA)
DNA 1: TCGATCGATG
DNA 2: CATCGATCGA

Assays:
[1] = target: T1, human uracil DNA glycosylase (UNG) (human, UniProt P13051 94-313); experiment: NMR HSQC titration, relaxation dispersion
[2] = target: T1, human uracil DNA glycosylase (UNG); experiment: fluorescence anisotropy

T1 sequence (P13051 94-313): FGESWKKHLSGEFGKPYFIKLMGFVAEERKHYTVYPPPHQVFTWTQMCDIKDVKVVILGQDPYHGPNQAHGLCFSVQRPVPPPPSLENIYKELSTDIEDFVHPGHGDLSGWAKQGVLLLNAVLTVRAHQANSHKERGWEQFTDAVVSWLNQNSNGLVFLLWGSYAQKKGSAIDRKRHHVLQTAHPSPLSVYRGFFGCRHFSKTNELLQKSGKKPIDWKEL

Binder | binding result [1] | Kd [2] [µM]
B1 | binds | –
B2 | – | 29 ± 0.4
